Source: the nanobody polyreactivity screen of Harvey et al. (2022)

Assay: yeast display, Sf9 membrane polyspecificity reagent, FACS + sequencing; frameworks hold sequencing errors
Procedure, shortened: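 Polyreactivity labels are assigned by the sorting gate from which each nanobody was recovered. The gates were low and high (top ~1%), set on anti-HA fluorescence for expression and streptavidin fluorescence for reagent binding. Before sorting, galactose-induced (36–48 hours) yeast display cells were stained for 1 hour at 4 °C with 10% biotinylated, detergent-solubilized Sf9 membrane reagent.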

For “QVQLVESGGGLVQAGGSLRLSCAASGFIFSGNAMGWYRQAPGKERELVAAITWSDGSTYYADSVKGRFTISRDNAKNTVYFQINSLKPEDSAVYYCAVGALQITRYDSWGQGTQVTVSS”, which “polyreactivity (PSR sort gate)” value is on record?
The value was “low polyreactivity”.

With “QVQLVESGGGLVQAGGSLRLSCAASGSIFLINAMGWYRQAPGKERELVAAISRSGGRTYYADSVKGRFTISRDNAKNTVYLEMNSLKPEDTAVYYCAVPSIYYAVRAYDYWGQGTQVTVSS” as the sequence, how does the “polyreactivity (PSR sort gate)” value read?
Its value is “high polyreactivity”.

For “QVQLVESGGRLVQAGRSLRLSCAASGSTFYLYAMGWYRQAPGKERELVASISIGGSTNYADSVKGRFTISRDNAKNTVYLQMNSLKPEDTAVYYCNADYYYVRTVRRLGYWGQGSQVTVSS”, which “polyreactivity (PSR sort gate)” value is on record?
Its value is “low polyreactivity”.

Which “polyreactivity (PSR sort gate)” value does the source give for “QVQRVESGGGLFQAGGRLRLSCAASGLIFPWYARGWYRQAPGKERELVAAISVRGGSTYYADSVKGRFTISRDNAKNTVYLQMNSLKPEDTAVYYCAASKRRASYRYYYWGQGTQVTVSS” here?
The value was “high polyreactivity”.

For “QVQLVESGGGLVQAGGSLRLSCDASGIIIRWYAMGWYRQAPGKERELVAAITSSGGRTYYADSVKGRFTISRDNAKNTVYLQMNSLKPEDTAVYYCAAQRYSHLYRGRFAYRYYYWGQGTQVTVSS”, which “polyreactivity (PSR sort gate)” value is on record?
The value was “high polyreactivity”.

With “QVQLVESGGGLVQAGGSLRLSCAASGSTFWYYAMGWYRQAPGKERELVAAITRDGTTYYADSVKGRFTISRDNAKNTVYLQMNSLKPEDTAVYYCAVDIDNWSEYDYWGQGTQVTVSS” as the sequence, how does the “polyreactivity (PSR sort gate)” value read?
The value was “low polyreactivity”.

With “QVQLVESGGVLVQAGGSLRLSCAASGYINGRYVMGWYRTAPGKETELVAAITSSGGSTYYADSVKGRFTISRDNAKNTVYLQINILSPDDTAVYYCAAPTYGRFLRNDYWGPGTQVTVSS” as the sequence, how does the “polyreactivity (PSR sort gate)” value read?
The value was “high polyreactivity”.

Which “polyreactivity (PSR sort gate)” value does the source give for “QVQLVESGGGLVQAGGTLRLSCAASGSTFRGYAMGWYRQAPGKERELVAAIRRAGSTNYAESVKGRFTISRDNAKNTVYLQMNSLKPEDTAVYYFADSKCLWYGASVSQKKAGMDSWGQGTQVTVSS” here?
Its value is “low polyreactivity”.

Which “polyreactivity (PSR sort gate)” value does the source give for “QVQLVESGGGLVQAGGSLRLSCAASGSTFYTNAMGWYRQAPGKEREMVASITGGGSTYYADSVKGRFTISRDNAKNTVYLQMNSLKPEDTAVYYCDADNVGGGWEFDSWGQGTQVTVSS” here?
The value was “low polyreactivity”.

With “QVQLEESGGGLVQAGGSLRLSCAASGSIFDLNAMGWYRQAPGKERELVAANSSGGGTYYADSVKGRFTISRDNAKNTVYLQMNSLKPEDTAVYYCAAVGYKGYGYDYWGQGTQVTVSS” as the sequence, how does the “polyreactivity (PSR sort gate)” value read?
Its value is “high polyreactivity”.

With “QVQLVESGGGLVQPGGSLRLSCAASRSIFKVYAMGWYRQEPGKEREFVAAITSSDSNTNYADSVKGRFTISRDNAKNTVYLQMHSLKPEDTAVYYCNARIYNRRYVPHYGFNYWGQGTQVTVSS” as the sequence, how does the “polyreactivity (PSR sort gate)” value read?
The value was “low polyreactivity”.

With “QVQLVESGGGLVQAGGSLRLSSAASGGTFGFNAMGWYRQAPGKERELVSGISSRGGSTYYADSVKGRFTISRDYAKNTVYLQMNSLKPEDTAVYYCNARQYPGRSWYRYDYWGQGTQVTVSS” as the sequence, how does the “polyreactivity (PSR sort gate)” value read?
The value was “high polyreactivity”.

Which “polyreactivity (PSR sort gate)” value does the source give for “QVQLVESGGGLVQAGGSLRLSCAASGSTFLYYAMGWYRQAPGKERELVAAITSSGGRTYFADSVKGRFTISRDNAQNTVYLQMNSLQPEDTAVYYCARGWPRREQSEYDYWGQGTQVTVSS” here?
The value was “high polyreactivity”.

Which “polyreactivity (PSR sort gate)” value does the source give for “QVHLVESGGGLVQAGGSLRLSSPASGRIFYRKALGWSRQETGKERELVAAISSSGGSTYYADSVKGRFTISRDNAKNTVYLQMNSLKPEDTEVYYCNKAVWGRSKYDFCGQGTQVTVSS” here?
The value was “high polyreactivity”.

With “QVQLVESGGGLVQAGGSLRLSCAASGIIFVFNAMGWYRQAPGKERELVAVISTSGDSTYYADSVKGRFTISRDNAKNTVYLQMNSLKPEDTAVYYCAADQRVTYRRGRAYDKYYYWGQGTQVTVSS” as the sequence, how does the “polyreactivity (PSR sort gate)” value read?
The value was “low polyreactivity”.

For “QVQLVESGGGLVQAGGSLRLSCAASGRIFGVYAMGWYRQSPGKERELVAPISRSGGRTYYADSVKGRFTISRDNAKNSDYLQMNSLKPEDTAVYYCNVVRWYYHPPLTGSRFDYWGQGTQVTVSS”, which “polyreactivity (PSR sort gate)” value is on record?
Its value is “high polyreactivity”.

Which “polyreactivity (PSR sort gate)” value does the source give for “QVQLVESGGGLVQAGGSLRLSCAASGRIFAPYAMGWYRQAPGKERELVAAIDGSGGSTYYADSVKGRFTISRDNAKNTVYLQMNSLKPEDTAVYYCATRGSYRSQRWYGYWGQGTQVTVSS” here?
Its value is “high polyreactivity”.

With “QVQLVESGGGLVQAGGSLRLSCAASGSIFLGYAMGWYRQAPGKERELVADIDWRDGSTYYADSVKGRFTISRDNAKTTVYLQMNSLKPEDTAVYYCAVYDNLQWDFGIYYEYDYWGQGTQVTVSS” as the sequence, how does the “polyreactivity (PSR sort gate)” value read?
Its value is “high polyreactivity”.

With “QVQLGESGGGLVQAGGSLRLSCAASGSTFYPYAIGWYRQAPGKERELVARITRGDGSTYYADSVKGRFTISRDNAKNTVYVQMNSLKPEDTAVYYCIRVEYYTVWGYDYWGQGTQVTVSS” as the sequence, how does the “polyreactivity (PSR sort gate)” value read?
The value was “low polyreactivity”.

Which “polyreactivity (PSR sort gate)” value does the source give for “QVQLVESGGGLVQAGGSLRLSCAASGRIFFATAMGWYRQAPGNERELVAAITSDGSTDYADSVKGRFTISRDNAKNTVYLQMNSLKPEDTAVYDCNADAYYRYGITMDYWGQGTQVTVSS” here?
The value was “low polyreactivity”.

For “QVQLVESGGGLVQEGGSLRLSCAASGRTFYQYAMGWYRQAPGKERELVAVINGGGSTNYADSVKGRFTISRDNAKNTVYLQMNSLIPEDTAVYYCNADDVFDFDYWGQGTQVTVSS”, which “polyreactivity (PSR sort gate)” value is on record?
The value was “low polyreactivity”.

For “QVQHVESGGGLVQAGGSLRLSCAASGRTFGGNAMGWYRQAPGKERELVAAISKSGGRTYYADSVKGRFTISRDNAKNTVYLQMNSLKPEDTAVYYCNKVLSVSQAGGFDYWGQGTQVTVSS”, which “polyreactivity (PSR sort gate)” value is on record?
Its value is “high polyreactivity”.

With “QVQLVESGGGLVQAGGSLRLSCAASGSIFWYNAMGWYRQAPGKERELVAAINWSGGSTFYADSVKGRFTISRDNAKNTVFLQMNSLKPEDTAVYYCAADDWYTGYDYWGHGTQVTVSS” as the sequence, how does the “polyreactivity (PSR sort gate)” value read?
Its value is “high polyreactivity”.

For “QVQLVESVGGLLQAGGSLRLSCAASGSIFDVYTMGWYRQAPGKVRELFAAINTGGGSTYYADSVKGRFTISRDNAKNTVYCQMNSLKPEVTAVYYCAASVYHYGPLYYWGQGTQVTVSS”, which “polyreactivity (PSR sort gate)” value is on record?
Its value is “low polyreactivity”.

For “QVQLVESGGGLVQAGGSLRLSCAASGSTFYWYTMGWYRQAPGKEKELVARISSSGSTNYADSVKGRFTISRDNAKNTVYLQMNSLKPEDTAVYYCNKDWIYRGYDYWGQGTQVTVSS”, which “polyreactivity (PSR sort gate)” value is on record?
Its value is “high polyreactivity”.

Which “polyreactivity (PSR sort gate)” value does the source give for “QVQLVESGGGLVQAGGSLRLSCAASGRTFTYYAMGWYRQAPGKERELVAAITSGGRTYYADSVKGRFTISRDNAKNTVYLQMNSLKPEDTAVYYCAARRIRDYYRSYDYWGQGTQVTVSS” here?
The value was “high polyreactivity”.

With “QVQLVESGGGLVQAGGSLRLSCAASGSIFLKYAMCLYRQAPGKERELVAAMSFSGGGTYYADSVKGRFTISRDNAKNTVYLQMNSLKPEDTAVYYCAADKIVYVRSNWYWGFDYWGQGTQVTVSS” as the sequence, how does the “polyreactivity (PSR sort gate)” value read?
The value was “low polyreactivity”.

With “QVQLEESGGGLVQAGGSLRLSCAASGRIFSDYAKGGYRQAPGKERELVATITSGDSTNYADSVKGRFTISRDNAKNTVYLQMNRLKPEDTAVYYCNADRFADYDYWGQGTQVTVSS” as the sequence, how does the “polyreactivity (PSR sort gate)” value read?
Its value is “low polyreactivity”.

For “QLQIVESGGGLVQAGGSLRLISAASGSTLAYYAMGWYRQEPGKERELVAAINWRTYYADSVKGRFTISRDNAMNTLYLQMNSLKPEDTAVYYCAAGYYLNKFYYWGQGTQVTVSS”, which “polyreactivity (PSR sort gate)” value is on record?
Its value is “high polyreactivity”.

With “QVQLVESGGGLVQAGGSLRLSCAASGRIFQPYAMGWYRQAPGKERELVAAITRSGGSTYYADSVKGRFTISRDNAMNTVDLQLNSLKPEDTAVSYCASKVLYPYEYWGQGTQVTVSS” as the sequence, how does the “polyreactivity (PSR sort gate)” value read?
The value was “low polyreactivity”.

For “QVQLVESVGGLVQAGGSLRLSCAASGSTIGWNAMGWYRQAPGKERELVAAISSSGGSTNYADSVKGRFTISRDNAKNTVYLQMNCLKPEDTAVYYCAKGRRPGYGYGYWGHGTQVTVSS”, which “polyreactivity (PSR sort gate)” value is on record?
The value was “low polyreactivity”.

Which “polyreactivity (PSR sort gate)” value does the source give for “QVQLVESGGGLVQAGGSLRLSCAASGSSFRIYAMGWYRQAPGKERELVAAISWSSGSTYYADSVKGRFTISRDNAKNTDYLPMNSLKPEDTAVYYCATYARRSGYYYWGQGTQVTVSS” here?
The value was “high polyreactivity”.

Which “polyreactivity (PSR sort gate)” value does the source give for “QVQLVESGGGLVQAGGSLRLSCAASGYTFRWYVMGWYRQAPGKERELVAAISQSGGDTYYADSVKGRFTISRDNAKNTVYLQMNSLKPEDTAVYYCAVGRVGRFYYWGQGTQVTVSS” here?
Its value is “high polyreactivity”.

For “QVQLVESGGGLVQAGVSLRISCAPSGRTFIIYAMGRYRQAPGKERELVADISSGGSTYYADSVKGRFKISRDNAKNTVYLHMNSLKPEDTAVYYCAAQSWYYPIGYDYWGLGTQVTVSS”, which “polyreactivity (PSR sort gate)” value is on record?
The value was “low polyreactivity”.

With “QVQLVESVGGLVQAGGSLRLSCAASGSTFAGYAMGWYRQAPGKERELVAAISGGRTYYADSVKGRFTISRDNAKNTVYLQMNSLQPEDTAVYYCAKRYFYYTAYNAYGYWGQGTQVTVSS” as the sequence, how does the “polyreactivity (PSR sort gate)” value read?
Its value is “high polyreactivity”.

With “QVQLEESGGGLVQAGGSLRLTCAASGSIFGSYTMGWYRKAPGKERELVAVISYSGGSTYYADSVKGRFSISRDNAKNTVYLQMNSLKPEDTAVYYCNAARKGVGYVHPYDFWGQGTQVTVSS” as the sequence, how does the “polyreactivity (PSR sort gate)” value read?
The value was “high polyreactivity”.

For “QVQLVESGGGLVQAVRSLRLSSAASGLTFGRNAMGWYRQAPGKERELVAAISRSGGRTSYADSVKGRFTISRDNAKNTVYLQMNSLKPEDTAVYYCAARSDVYTHDYWGQGTQVTVSS”, which “polyreactivity (PSR sort gate)” value is on record?
Its value is “high polyreactivity”.

Which “polyreactivity (PSR sort gate)” value does the source give for “QVPLVESGGGLVQAAGSLRLSCAASGRISLGYAMGWYRQAPGKERELVAAISRGGTNTYYADSVKGRFTISRDNAKNTVYLQMNSLKPEDTAVYYCAARYSWGQGTQVTVSS” here?
Its value is “high polyreactivity”.

Which “polyreactivity (PSR sort gate)” value does the source give for “QVPLVESGGGLVQAGGRLRISCAASGITCTFYSMGWYREAPGKESELVAAISRRGGSTYYADSVKGRFTISRDNEKNTVYLHMNSLKPEDTAVYYCAARGYRPMDYWGQGTQVTVSS” here?
The value was “high polyreactivity”.

Which “polyreactivity (PSR sort gate)” value does the source give for “QVQLVESGGGLVQAGGRLRITCAASGRTFKTYAMGWYRPAPGKERELVAAISRRGGSTYFADSVKGRFTISRDNAKNTVYLQMNSLKPEDTAVYYCASGNSVGLGWGQGTQVTLSS” here?
The value was “high polyreactivity”.

With “QVQLVESGGGLVQAGGTLRLSCAASGSIFARYAMGCSIQAPGKERELVAAISGSGASTYYADSVKGRFTISRDNAKNTVYLQMNSLKPEDTAVYYCARPFLRRPTYRFETGYGYWGQGTQVTVSS” as the sequence, how does the “polyreactivity (PSR sort gate)” value read?
The value was “high polyreactivity”.

With “QVQLVESGGGLVQAGGSLRLSCAATRYTFSHYAMGCYRQAPGKERELVAAMSGSGGNTYYADSVKGRFTISRDHAKNTVYLQMNSLKPEDTAVYYCNADNEYRLGYWDDSWVQGTQVTVSS” as the sequence, how does the “polyreactivity (PSR sort gate)” value read?
Its value is “low polyreactivity”.

Which “polyreactivity (PSR sort gate)” value does the source give for “QVQLVESGGGLVQAGGSLRLSGAASGRTLKWYAMGWYRQPPGKERELVAAISWSGGSTYYADSVKGRFTISRDNAKNTVYVQMNSLKPEDTAVYYCAAYYIYSSVGKSLYASMEYWGQGTQVTVSS” here?
Its value is “low polyreactivity”.
